Assay results reported in article PMC8850660 (2022).
One block for each binder: values may come before it.

What was measured:
[1] = molecular target: T1, unphosphorylated beta subunit of the insulin receptor (IRβ), recombinant (UniProt P06213 763-1382); assay: SPR; in the presence of C646 (0-100 nM)
[2] = molecular target: T1, unphosphorylated beta subunit of the …; assay: SPR; in the presence of C646 (0-100 nM); remark: listed apart in the source

T1 sequence (P06213 763-1382): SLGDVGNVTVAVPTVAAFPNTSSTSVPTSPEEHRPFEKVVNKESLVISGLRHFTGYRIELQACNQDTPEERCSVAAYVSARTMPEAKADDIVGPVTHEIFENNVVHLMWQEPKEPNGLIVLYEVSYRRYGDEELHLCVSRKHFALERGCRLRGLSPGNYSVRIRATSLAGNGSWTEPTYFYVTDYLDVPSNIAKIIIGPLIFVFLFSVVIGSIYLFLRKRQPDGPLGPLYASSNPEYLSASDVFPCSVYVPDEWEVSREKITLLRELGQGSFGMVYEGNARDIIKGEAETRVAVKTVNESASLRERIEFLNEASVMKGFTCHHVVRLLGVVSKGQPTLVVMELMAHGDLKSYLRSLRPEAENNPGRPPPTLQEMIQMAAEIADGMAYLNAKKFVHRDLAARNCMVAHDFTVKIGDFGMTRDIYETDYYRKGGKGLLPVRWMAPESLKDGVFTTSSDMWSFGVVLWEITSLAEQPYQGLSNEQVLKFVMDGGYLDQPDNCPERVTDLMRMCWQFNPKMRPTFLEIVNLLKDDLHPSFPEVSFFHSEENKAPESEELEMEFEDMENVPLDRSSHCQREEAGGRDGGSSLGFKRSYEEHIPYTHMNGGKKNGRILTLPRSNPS

koff [1]: 1.5e-06 s⁻¹
Kd [2]: 7.6 pM
B1: purified IRS2 protein (insulin receptor substrate 2) (natural protein)
chain: MASAPLPGPPASAGGDGPNLNNNNNNNNHSVRKCGYLRKQKHGHKRFFVLRGPGTGGDEASAAGGSPPQPPRLEYYESEKKWRSKAGAPKRVIALDCCLNINKRADAKHKYLIALYTKDEYFAVAAENEQEQEGWYRALTDLVSEGRSGEGGSGTTGGSCSASLPGVLGGSAGAAGCDDNYGLVTPATAVYREVWQVNLKPKGLGQSKNLTGVYRLCLSARTIGFVKLNCEQPSVTLQLMNIRRCGHSDSFFFIEVGRSAVTGPGELWMQADDSVVAQNIHETILEAMKALKELFEFRPRSKSQSSGSSATHPISVPGARRHHHLVNLPPSQTGLVRRSRTDSLAATPPAAKCTSCRVRTASEGDGGAAGGAGTAGGRPMSVAGSPLSPGPVRAPLSRSHTLSAGCGGRPSKVTLAPAGGALQHSRSMSMPVAHSPPAATSPGSLSSSSGHGSGSYPLPPGSHPHLPHPLHHPQGQRPSSGSASASGSPSDPGFMSLDEYGSSPGDLRAFSSHRSNTPESIAETPPARDGSGGELYGYMSMDRPLSHCGRPYRRVSGDGAQDLDRGLRKRTYSLTTPARQRQVPQPSSASLDEYTLMRATFSGSSGRLCPSFPASSPKVAYNPYPEDYGDIEIGSHKSSSSNLGADDGYMPMTPGAALRSGGPNSCKSDDYMPMSPTSVSAPKQILQPRLAAALPPSGAAVPAPPSGVGRTFPVNGGGYKASSPAESSPEDSGYMRMWCGSKLSMENPDPKLLPNGDYLNMSPSEAGTAGTPPDFSAALRGGSEGLKGIPGHCYSSLPRSYKAPCSCSGDNDQYVLMSSPVGRILEEERLEPQATPGAGTFGAAGGSHTQPHHSAVPSSMRPSAIGGRPEGFLGQRCRAVRPTRLSLEGLQTLPSMQEYPLPTEPKSPGEYINIDFGEAGTRLSPPAPPLLASAASSSSLLSASSPASSLGSGTPGTSSDSRQRSPLSDYMNLDFSSPKSPKPSTRSGDTVGSMDGLLSPEASSPYPPLPPRPSTSPSSLQQPLPPAPGDLYRLPPASAATSQGPTAGSSMSSEPGDNGDYTEMAFGVAATPPQPIVAPPKPEGARVASPTSGLKRLSLMDQVSGVEAFLQVSQPPDPHRGAKVIRADPQGGRRRHSSETFSSTTTVTPVSPSFAHNSKRHNSASVENVSLRKSSEGSSTLGGGDEPPTSPGQAQPLVAVPPVPQARPWNPGQPGALIGCPGGSSSPMRRETSVGFQNGLNYIAIDVRGEQGSLAQSQPQPGDKNSWSRTRSLGGLLGTVGGSGASGVCGGPGTGALPSASTYASIDFLSHHLKEATVVKE

koff [1]: 3.92e-08 s⁻¹
Kd [2]: 0.286 pM
B2: purified IRS1 protein (insulin receptor substrate 1) (natural protein)
chain: MASPPDTDGFSDVRKVGYLRKPKSMHKRFFVLRAASEAGGPARLEYYENEKKWRHKSSAPKRSIPLESCFNINKRADSKNKHLVALYTRDEHFAIAADSEAEQDSWYQALLQLHNRAKAHHDGAGGGCGGSCSGSSGVGEAGEDLSYDTGPGPAFKEVWQVILKPKGLGQTKNLIGIYRLCLTSKTISFVKLNSEAAAVVLQLMNIRRCGHSENFFFIEVGRSAVTGPGEFWMQVDDSVVAQNMHETILEAMRAMSDEFRPRSKSQSSSSCSNPISVPLRRHHLNNPPPSQVGLTRRSRTESITATSPASMVGGKPGSFRVRASSDGEGTMSRPASVDGSPVSPSTNRTHAHRHRGSSRLHPPLNHSRSIPMPSSRCSPSATSPVSLSSSSTSGHGSTSDCLFPRRSSASVSGSPSDGGFISSDEYGSSPCDFRSSFRSVTPDSLGHTPPARGEEELSNYICMGGKGASTLAAPNGHYILSRGGNGHRYIPGANLGTSPALPGDEAAGAADLDNRFRKRTHSAGTSPTISHQKTPSQSSVASIEEYTEMMPAAYPPGGGSGGRLPGYRHSAFVPTHSYPEEGLEMHHLERRGGHHRPDTSNLHTDDGYMPMSPGVAPVPSNRKGNGDYMPMSPKSVSAPQQIINPIRRHPQRVDPNGYMMMSPSGSCSPDIGGGSSSSSSISAAPSGSSYGKPWTNGVGGHHTHALPHAKPPVESGGGKLLPCTGDYMNMSPVGDSNTSSPSECYYGPEDPQHKPVLSYYSLPRSFKHTQRPGEPEEGARHQHLRLSSSSGRLRYTATAEDSSSSTSSDSLGGGYCGARPESSLTHPHHHVLQPHLPRKVDTAAQTNSRLARPTRLSLGDPKASTLPRVREQQQQQQSSLHPPEPKSPGEYVNIEFGSGQPGYLAGPATSRSSPSVRCPPQLHPAPREETGSEEYMNMDLGPGRRATWQESGGVELGRIGPAPPGSATVCRPTRSVPNSRGDYMTMQIGCPRQSYVDTSPVAPVSYADMRTGIAAEKASLPRPTGAAPPPSSTASSSASVTPQGATAEQATHSSLLGGPQGPGGMSAFTRVNLSPNHNQSAKVIRADTQGCRRRHSSETFSAPTRAGNTVPFGAGAAVGGSGGGGGGGSEDVKRHSSASFENVWLRPGDLGGVSKESAPVCGAAGGLEKSLNYIDLDLAKEHSQDCPSQQQSLPPPPPHQPLGSNEGNSPRRSSEDLSNYASISFQKQPEDRQ
